Experiment [1] deals with PRX1, recombinant (Chlamydomonas reinhardtii).
Experiment [2] shares this target. This is another data set of the same source.

For “calredoxin (CRX), wild type, recombinant (enzyme)”, in experiment [1], the reduction of PRX1 by CRX (NADPH oxidation) without Ca2+ (EGTA added) against with Ca2+ turned out to be 10 fold.

For “calredoxin (CRX) Lys263Ile, recombinant (enzyme)”, the maximal electron transfer rate to PRX1 at saturating Ca2+ against WT CRX (Supplementary Fig. 1b) in experiment [2] is 3 fold.

The values above are taken from PMC4911631.
